Source: patent US20140010757A1 (Stanford University, published 2014)
No end group written: not given here.

Columns and labels:
[1] = target: αvβ3 integrin on cells (U87MG glioblastoma cells; K562-αvβ3 cells) (UniProt P06756); experiment: competing off binding of ^125I-echistatin (U87MG cells)
[2] = target: T1, αvβ3 integrin on cells (U87MG glioblastoma cells; K562-αvβ3 cells) (UniProt P06756 31-1048; P05106 27-788); experiment: competition with ^125I-echistatin on U87MG cells
T1 construct: whole, on cells; also called cell surface αvβ3 integrin

[3] = target: T2, α5β1 integrin (detergent-solubilized) (UniProt P08648 42-1049; P05556 21-798); experiment: competition with ^125I-echistatin on plate-coated detergent-solubilized integrin
T2 construct: Coated on microtiter plates; also called integrin α5β1

WT (synthesized Agouti peptide) showed an IC50 [1] of 1400 nM.

B1: ^64Cu-DOTA-7C AgRP engineered peptide (designed binder)
chain: GCVRLHESCLGQQVPCCDPAATCYCYGRGDNDLRCYCR
modifications: ends and bridges not checked; also: DOTA-64Cu label (site not given here)
notes: also called ^64Cu Labeled AgRP loop 4 RDG mutant (peptide 7C); labeled 7C
B1: binds [2].

QCESGPCCRNCKFLKEGTICKRARGDDMDDYCNGKTCDCPRNPHKGPAT (ligand, ends and bridges not checked; cysteine pairing not given here) [echistatin (unlabeled)]: binds [3].
